# From patent US20120100141A1
# Biological target: Mouse GLP-1 receptor (mouse) (UniProt O35659)
# Experiment: cell-based or functional assay
# Chain of Mouse GLP-1 receptor (mouse) (O35659 22-463): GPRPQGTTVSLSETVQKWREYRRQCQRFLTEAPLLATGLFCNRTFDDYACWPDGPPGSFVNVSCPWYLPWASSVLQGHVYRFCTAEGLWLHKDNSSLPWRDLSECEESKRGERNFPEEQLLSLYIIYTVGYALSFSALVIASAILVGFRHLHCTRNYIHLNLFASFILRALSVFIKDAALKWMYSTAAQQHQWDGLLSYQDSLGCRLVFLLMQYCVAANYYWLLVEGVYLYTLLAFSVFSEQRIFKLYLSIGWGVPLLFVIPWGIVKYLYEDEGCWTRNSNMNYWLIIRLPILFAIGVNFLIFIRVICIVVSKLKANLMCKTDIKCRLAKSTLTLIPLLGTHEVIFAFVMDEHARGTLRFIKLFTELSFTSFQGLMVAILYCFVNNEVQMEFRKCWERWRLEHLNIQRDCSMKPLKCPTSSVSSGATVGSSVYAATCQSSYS
substance,measurement,value
GLP-1 (7-36) (from UniProt P01275 98-127) (peptide),"pEC50, melanophore functional GLP-1R bioassay",11.5
